{"source": "the supplement of paper PMC9170038", "data": [{"test_system": "K4 kissing-loop RNA reporter", "test": "apparent KD of K4 kissing-loop reporter; higher = weaker reporter binding", "conditions": "Eterna round: R107; input ligand: none", "protocol": "(§1)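 RNA-MaP round R107: designed RNA switches with theophylline, tryptophan, arginine or FMN aptamers are transcribed on-chip within common flanks. They are titrated with a labelled K4 kissing-loop RNA reporter in RNA-MaP buffer (100 mM Tris pH 7.5, 80 mM KCl, 4 mM MgCl2), without ligand or with the indicated ligand. Median apparent KD per design.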", "units": {"apparent KD of K4 kissing-loop reporter": "nM"}, "values": [{"sequence": "GGAUAGGAUAGAGGAUAUGGUUUAUGCAGAAAUAACUUAUUGUGUAAAUCCAUAGGGAGUGAUGUUCCAGAAGGCUGUCCUAUCG [MatMod 15 - Jieux - Exclusion - FMN B]", "apparent KD of K4 kissing-loop reporter": 209}, {"sequence": "CUUUUACAGUCGGCCGCCACUGACAGCACUUCAAAGACAGUAUAAGGGUAGUGAUGUUACUUUAUCAGGACCGGGACUACCUAAC [theeternabot_sameState_KL_Trp_B_3]", "apparent KD of K4 kissing-loop reporter": 205}, {"sequence": "GUACGCUCUCGAGUGAUGUUCGAUAAUCGCGAGGAUAUCGCUUUUGCGAGAAGGCGCGGAAUGAGGAAACUCGUUCUGAGUGUAC [FMN A 24]", "apparent KD of K4 kissing-loop reporter": 1060}, {"sequence": "UUAUAUAAGGGAAGGAGCGCGUGGGCGCAGUGAUGUUGCGCCCGACAUCACUUCAACUUAACGCAGGUAGGUCGCCCUUUUAAUA [Arginine B (Excl) V4]", "apparent KD of K4 kissing-loop reporter": 209}, {"sequence": "CUCGAGUGAUGUUCGAUUAUGUAUACAGAUACCAGUGAAUUUUAACACCCUUGGCAGCUGGUAGAAUCAUUGUAAUUUUAACUAG [JR_ExcTheophyA_Sub001]", "apparent KD of K4 kissing-loop reporter": 218}, {"sequence": "GCAGUGAUGUUGCGCGAGUACGGUAGAGUACGAGGACCGGUACGGCCGCCACUCGUACGGAACUGGCUAAUUUAUGGAAUGGUGA [III]", "apparent KD of K4 kissing-loop reporter": 295}, {"sequence": "AGUGAAGUUAGUGAUGUGUGAGUUUGGGAAGGAGCGCCGAGGAAGGCAGGUAGGUCGCCCAGUGAUGUUGGUGUAAGGAUGAGAG [whbob_Ex_Arginine_A_2t123]", "apparent KD of K4 kissing-loop reporter": 311}, {"sequence": "GAACGAGUGAUGUUCGUUGGCAUGCAUUCCGAGGAUAUGGGAUUAGCCAGAAGGCGGAAUCAGUCUUCGAGUGAUGUUCGAAGAU [Same State FMN A GF 12]", "apparent KD of K4 kissing-loop reporter": 116}, {"sequence": "UGUCUUUUUUUGAUGUUUUUUGUAUAAUGGCAGGAUAUCGUAGAGGCGAGAAGGGCUUUUAUGCGUUAUGAGUGAUGUUUGUAGG [vevvmullin]", "apparent KD of K4 kissing-loop reporter": 302}, {"sequence": "AGACUACCACACUGUCAAUAGACAGUGAACUAGGAUAUGCUGAUAAGCAGAAGGAGUGAUGUUCCGAGGUAGUCAAUAAAAUAAU [FmnAX 13 G66]", "apparent KD of K4 kissing-loop reporter": 287}, {"sequence": "CACUUACGUAGUGAUGUUACGAUCUCUGAUACCAGACAACUCUAAGUCCCUUGGCAGCAGUCAUUUUGCUUAGUAUUUACUCAAA [JR_ExcTheophyA_Sub016]", "apparent KD of K4 kissing-loop reporter": 791}, {"sequence": "CCACCUCCAGAAGGAUAUAGUGUAUCAGAUUCACUCGAGUGCCUUAAACUAAGGAGUGAUGUUCCGCUAGAAGGUCUCGUAGGCA [theeternabot_exclusion_KL_FMN_B_45]", "apparent KD of K4 kissing-loop reporter": 149}, {"sequence": "UGACGUUUGGGAAGGAGCGGAAUGUAAUACGGAACGCGUGGAGAUGCAGUGAUGUUGCAGAUCCAGGUAGGUCGCCCAAGGGACG [Zainat]", "apparent KD of K4 kissing-loop reporter": 76.2}, {"sequence": "UAAUUUAUGUCUUUAAUUUUAUUAUCAGAUACCAGUGAUUUAUGACACCCUUGGCAGCUGUAUUGAGUGAUGUUCUUAUAUUAAA [JR_Nu_ExcTheophyA_Sub023]", "apparent KD of K4 kissing-loop reporter": 118}, {"sequence": "UUAAAAUAUAUAAAUAAUAAGGGAAUUGAUACCAGACAGAAUUCUGUCCCUUGGCAGCAGUGAUGUUGUUGCAAUUUAAAUAAUU [AK1 Exc Theophylline A]", "apparent KD of K4 kissing-loop reporter": 112}, {"sequence": "AGGACGGUUAUGGAUACCAGUCCGGAACUUGUCCAUGGAGUGAUGUUCCGUCCAGCUCCGGACCCUUGGCAGCCAGACUGCUGAA [theeternabot_sameState_KL_Theo_B_41]", "apparent KD of K4 kissing-loop reporter": 192}, {"sequence": "UGAUACCAGACUGAUACCAGCCAGUGAUGUUGGCUAAGCCGAAGAGGUGUCAAAGACACCGGCCCUUGGCAGCAGUCUGGUAUCU [#06 K4 Theophylline B Exclusion]", "apparent KD of K4 kissing-loop reporter": 114}, {"sequence": "CGGCGGAGUGAUGUUCCACCUACUGCGGAUACCAGCUUUGCCAAAGGCCCUUGGCAGCCGCACGGCUCAGUGAUGUUGGGUCGCG [Same State Theophylline A G11]", "apparent KD of K4 kissing-loop reporter": 244}, {"sequence": "CCGCUACCCUCAGGAUAUUAAAUAUUAGUGAUGUUAAUAAACCGAUGGCGAAAGCCAUCGGUAUGUUAAGAAGGGAGGGUAGCGG", "apparent KD of K4 kissing-loop reporter": 974}, {"sequence": "UGACUGGAUGGAAGGAGCGCUAAACUCCUAGUGAUGUUAGGGAAAUGAGACAAAGUCUCAAGGCAGGUAGGUCGCCAUCUAGUCU [FiskerMod 16 - Jieux - Same State - Arginine B]", "apparent KD of K4 kissing-loop reporter": 174}, {"sequence": "AGUAGAGCAUCAGAUACCAGACUGAACUGAUGGUAAGGAGUGAUGUUCCUUAAUCAGCUAGUCCCUUGGCAGCUGAUAAUAGUCA [Theo B SS t3]", "apparent KD of K4 kissing-loop reporter": 268}]}, {"test_system": "K4 kissing-loop RNA reporter", "test": "apparent KD of K4 kissing-loop reporter; higher = weaker reporter binding", "conditions": "Eterna round: R107; input ligand: theophylline 20 uM", "protocol": "as §1", "units": {"apparent KD of K4 kissing-loop reporter": "nM"}, "values": [{"sequence": "GCGAUUCAGUGAUGUUGGAAAUACAGGGAUACCAGCCGAGAAUAAGGCCCUUGGCAGCUUAAUAGGAAAGAACUAAGUAAGACGC [Theophylline A Same State; Euphoria Solution 2]", "apparent KD of K4 kissing-loop reporter": 616}, {"sequence": "AUUUUUUUGUCAGGAUAUUAGUAUGGUUUUGGUUUGUUAGUGAUGUUGAUAUUUUGUUUAUGUAUUUAAGAAGGGAUUUAGCGGU [gyhhgumullin]", "apparent KD of K4 kissing-loop reporter": 447}, {"sequence": "GUAGACAGACUGCGGGCCUAGUCUACAGACUAGGAUAUCAGGAAACUGAGAAGGAGUCUAGUUGCAGUGAUGUUGCAAGAAUAAU [KL-SSFMN-A26]", "apparent KD of K4 kissing-loop reporter": 114}, {"sequence": "AAGUGUCAUUAGACACAGACUACAAUAAACUAGGAUAUGCUGAUAAGCAGAAGGAGUGAUGUUCCUUUCAAGUAGUCAAUUAAAU [FmnAX 20 Mat Inspired #SwitchBubble #StaticStem #K4Late]", "apparent KD of K4 kissing-loop reporter": 128}, {"sequence": "AAUACGAAGCAGUGAUGUUGCUUAUGAGAAGGAGCGCACGAAAGUGCAGGUAGGUCGCUCAGCCAUGUGGACGAAAACGUCCACA [whbob_SS_Arginine_A_sa109]", "apparent KD of K4 kissing-loop reporter": 102}]}]}
